Assay results: patent US20170056488A1

Target: HLA-A*02 (human)
Experiment: UV ligand exchange, anti-b2m ELISA; exchange yield grade

peptide exchange yield: 20 to 49%
Binder: VLLRVLIL
